Experimental data: publication PMC8774819

Molecular target: BES1-MBP (Arabidopsis thaliana, UniProt Q9LN63 1-335)
Assay: EMSA

Sequence of BES1-MBP (Q9LN63 whole entry): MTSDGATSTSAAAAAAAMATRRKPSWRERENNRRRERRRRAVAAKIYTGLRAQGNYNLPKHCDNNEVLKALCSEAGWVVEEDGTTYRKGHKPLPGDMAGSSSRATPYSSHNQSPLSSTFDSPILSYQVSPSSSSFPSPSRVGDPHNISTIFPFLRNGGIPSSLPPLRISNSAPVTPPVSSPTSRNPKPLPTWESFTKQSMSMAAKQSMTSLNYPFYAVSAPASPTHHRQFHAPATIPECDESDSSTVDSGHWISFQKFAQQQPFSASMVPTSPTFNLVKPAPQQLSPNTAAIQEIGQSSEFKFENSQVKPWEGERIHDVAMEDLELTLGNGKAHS

Row | Binder | binding result
1 | WOX4 promoter probe c (dsDNA) DNA 1: GTAACGAGAAAGGCATGCATAGCATTTGCTAGTTTTAACATATAGCA DNA 2: TGCTATATGTTAAAACTAGCAAATGCTATGCATGCCTTTCTCGTTAC | binds
2 | WOX4 promoter probe a (dsDNA) DNA 1: CCATCTGATCACAGCTTGACACACGAATCAGGTTATCCATCGTGTGA DNA 2: TCACACGATGGATAACCTGATTCGTGTGTCAAGCTGTGATCAGATGG | binds
